The values below are quoted from earlier work in paper PMC3064480.

This data set addresses TβRII ED (Homo sapiens) (UniProt P37173). In words: SPR. (In general: SPR reads the build-up and loss of mass on a sensor chip optically.)

Sequence of TβRII ED (Homo sapiens) (P37173 23-166): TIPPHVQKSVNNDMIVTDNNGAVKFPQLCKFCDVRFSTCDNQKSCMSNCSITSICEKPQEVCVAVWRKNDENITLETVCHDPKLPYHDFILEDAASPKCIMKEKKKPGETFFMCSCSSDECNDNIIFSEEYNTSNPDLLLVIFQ
Sequence of TGF-β1 (P01137 279-390): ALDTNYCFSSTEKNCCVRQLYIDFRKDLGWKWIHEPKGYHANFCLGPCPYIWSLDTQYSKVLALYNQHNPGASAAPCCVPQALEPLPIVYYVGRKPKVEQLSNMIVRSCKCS

One may read the Kd as the constant that tells how readily two partners part at equilibrium. Turning to TGF-β1 (from UniProt P01137), the Kd is 5 pM.
